The values that follow come from patent US8338168B2.

Test [1] concerns the target RDPrHIV mutant glycoprotein (feline endogenous virus RD114).
The target of test [2] is CH-296 retronectin fragment (Homo sapiens (Human)) (UniProt P02751).

The substance MLV viral core protease (enzyme) came in with an infectivity of MLV pseudotyped vectors on TE671 cells in test [1] below 20 fold.
As to RD114/TR chimeric glycoprotein, the transduction efficiency of human CD34+ cells on retronectin-coated plates against no retronectin in test [2] was 10 fold.
